Assay results published in patent US20170002075A1 (AbbVie / Abbott, published 2017).

Columns and labels:
[1] = molecular target: T1, RAGE-derived peptide 6 (human); experiment: dot blot, non-denatured peptide on nitrocellulose
T1 construct: Synthetic peptide with a free carboxyl terminus
T1 peptide: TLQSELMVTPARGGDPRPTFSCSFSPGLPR
Text: (§1) Dot blots were used to evaluate the binding of antibodies to peptides or fragments of RAGE in a non-denatured form. […] Peptides were ordered and synthesized by Biotrend according to standard methods (solid phases peptide synthesis on AMS 222 synthesizer using Fmoc/tBu-chemistry) containing a free carboxyl terminus. Peptides were HPLC-purified and analysis of every peptide for purity was done using RP-HPLC. […] The identities of peptides were verified by mass spectrometry.
(§2) Dots consisting of different amount of protein/peptide (30 ng, 10 ng, 3 ng, 1 ng, 0.3 ng, 0.1 ng, 0.03 ng, and 0.01 ng) in a volume of 1 μl in 1×PBS were spotted onto a Hybond-ECL Nitrocellulose Membrane (Amersham, RPN68D) in duplicates. Membranes were dried and unspecific binding was blocked by shaking the membranes for 1 hour at room temperature with Western Blocking reagent (Roche, no. 1921673). Blocking reagent was discarded and the membranes were incubated with antibodies in a concentration of 7.14 nM (shaking, 1 hour at room temperature). […] Blots were washed 4 times (each time 5 minute incubation with shaking at room temperature) with 1×PBS. Blots were then incubated with goat anti mouse IgG AP secondary antibody (Sigma no. A-7434) diluted 1:2000 in Western Blocking Reagent (Roche, no. 192173). Incubation for 1 hour was as before (shaking, room temperature). The filters were washed 4 times (5 minutes each) in 1×PBS. Development of signals was according to manufacturers instructions with NBT/BCIP substrate solution (Roche, no. 1697471). Color development was stopped after 10 minutes with bi-distilled water.

[2] = molecular target: T2, RAGE-derived peptide 8 (human); experiment: dot blot, non-denatured peptide on nitrocellulose
T2 construct: Synthetic peptide with a free carboxyl terminus
T2 peptide: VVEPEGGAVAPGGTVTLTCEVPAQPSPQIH
Text: as §1, §2

[3] = molecular target: T3, RAGE-derived peptide 10 (human); experiment: dot blot, non-denatured peptide on nitrocellulose
T3 construct: Synthetic peptide with a free carboxyl terminus
T3 peptide: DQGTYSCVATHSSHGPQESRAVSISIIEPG
Text: as §1, §2

[4] = molecular target: T4, RAGE-derived peptide 7 (human); experiment: dot blot, non-denatured peptide on nitrocellulose
T4 construct: Synthetic peptide with a free carboxyl terminus
T4 peptide: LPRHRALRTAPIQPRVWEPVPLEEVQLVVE
Text: as §1, §2

[5] = molecular target: T5, RAGE-derived peptide NtermR31 (human); experiment: dot blot, non-denatured peptide on nitrocellulose
T5 construct: Synthetic peptide with a free carboxyl terminus
T5 peptide: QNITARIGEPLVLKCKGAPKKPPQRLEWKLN
Text: as §1, §2

[6] = molecular target: T6, RAGE-derived peptide 2 (human); experiment: dot blot, non-denatured peptide on nitrocellulose
T6 construct: Synthetic peptide with a free carboxyl terminus
T6 peptide: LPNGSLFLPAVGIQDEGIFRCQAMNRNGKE
Text: as §1, §2

[7] = molecular target: T7, RAGE-derived peptide 5 (human); experiment: dot blot, non-denatured peptide on nitrocellulose
T7 construct: Synthetic peptide with a free carboxyl terminus
T7 peptide: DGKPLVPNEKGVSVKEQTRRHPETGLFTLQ
Text: as §1, §2

[8] = molecular target: T8, RAGE-derived peptide 4 (human); experiment: dot blot, non-denatured peptide on nitrocellulose
T8 construct: Synthetic peptide with a free carboxyl terminus
T8 peptide: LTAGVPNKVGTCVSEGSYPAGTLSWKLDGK
Text: as §1, §2

[9] = molecular target: T9, RAGE-derived peptide 9 (human); experiment: dot blot, non-denatured peptide on nitrocellulose
T9 construct: Synthetic peptide with a free carboxyl terminus
T9 peptide: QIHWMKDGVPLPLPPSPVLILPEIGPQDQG
Text: as §1, §2

[10] = molecular target: T10, RAGE-derived peptide 3 (human); experiment: dot blot, non-denatured peptide on nitrocellulose
T10 construct: Synthetic peptide with a free carboxyl terminus
T10 peptide: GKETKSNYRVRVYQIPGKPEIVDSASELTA
Text: as §1, §2

[11] = molecular target: T11, RAGE-derived peptide 1 (human); experiment: dot blot, non-denatured peptide on nitrocellulose
T11 construct: Synthetic peptide with a free carboxyl terminus
T11 peptide: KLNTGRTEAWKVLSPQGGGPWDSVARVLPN
Text: as §1, §2

[12] = molecular target: T12, E. coli RAGE Construct #2, 6His-(Thr)-[RAGE (24-129)] (human); experiment: ELISA: RAGE 24-129 (E. coli, D#1474) coated, mAb titrated, anti-mouse HRP conjugate, TMB
T12 construct: Expressed in E. coli with an N-terminal 6His-(Thr) tag, which is part of the entry; also called RAGE protein #2
T12 chain: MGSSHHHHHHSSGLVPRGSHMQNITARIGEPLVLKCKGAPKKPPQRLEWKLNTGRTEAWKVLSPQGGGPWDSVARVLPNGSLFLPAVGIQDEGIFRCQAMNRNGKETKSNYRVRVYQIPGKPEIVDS
Method: (§3) Antigens (purified construct #1-7 proteins) were diluted into Coating Buffer [100 mM NaHCO₃, pH 8.2] to 1 μg/ml, and 100 μl of the resulting solution was then aliquoted into a 96-well Nunc Immuno Plate (Maxi-Sorb Surface, flat bottom, catalog #439454). The plate was sealed with sealing film and incubated at 4° C. overnight. The next day, the plate wells were each washed 3 times with 150 μL PBST buffer [Sigma PBS+0.05% Tween 20]. Then 300 ul of blocking solution (3% NFDM in PBST) was added to each well. The plate was incubated for 2 hours at room temperature and shaking at 100 rpm. After the incubation step, each well was again washed three times with 150 uL PBST. […] The plate was then sealed with sealing film and incubated for 2 hours at room temperature and shaking at 100 rpm. Next the antibody solution was drained out of the wells, and each well then washed three times with 200 ul PBST. To each well then 200 ul of a 1:5000 dilution (in PBST/1% NFDM) of conjugated secondary antibody [Donkey anti-mouse HRPO conjugate, Jackson Immuno Research, Catalog #715-035-150] was added. The plate was covered and allowed to incubate for 1 hour at room temperature while shaking at 100 rpm. Following this incubation, the solution was removed from the wells and each well was washed three times with 200 ul PBST. To each well 100 μL of HRPO substrate [3,3′,5′,5′-Tetramethylbenzidine Liquid Substrate (TMB), Supersensitive for ELISA, Sigma Catalog #T4444] solution was added and the plate incubated at room temperature for 10 minutes. Finally, 50 μL of 2M H₂SO₄ was added to each well to stop the reaction and the A₅₄₀ₙₘ of each well was measured using a microtiter plate reader.

[13] = molecular target: T13, E. coli RAGE Construct #1, OmpA-[RAGE (23-340)]-6His (human, UniProt Q15109 23-340); experiment: ELISA, fragment coated at 1 µg/ml
T13 construct: Not glycosylated (E. coli); also called RAGE protein #1; E. coli-expressed sRAGE
Method: as §3, with “Following this incubation, the solution was removed from the wells and each well was washed three times with 200 ul PBST. To each well 100 μL of HRPO substrate [3,3′,5′,5′-Tetramethylbenzidine Liquid Substrate (TMB), Supersensitive for ELISA, Sigma Catalog #T4444] solution was added and the plate incubated at room temperature for 10 minutes.” left out

Measured: binding result

T13 sequence (Q15109 other isoform, or with tags, fused parts or gaps limits assumed): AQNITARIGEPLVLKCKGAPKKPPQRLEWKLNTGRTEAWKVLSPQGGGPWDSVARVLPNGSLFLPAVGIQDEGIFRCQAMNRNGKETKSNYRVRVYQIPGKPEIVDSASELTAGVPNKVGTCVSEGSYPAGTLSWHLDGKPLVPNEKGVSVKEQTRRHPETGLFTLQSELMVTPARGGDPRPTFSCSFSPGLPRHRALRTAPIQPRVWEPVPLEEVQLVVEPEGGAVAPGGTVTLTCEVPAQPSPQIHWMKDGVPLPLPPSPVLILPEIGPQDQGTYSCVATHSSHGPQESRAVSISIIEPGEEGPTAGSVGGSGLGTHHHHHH

B1: anti-human RAGE monoclonal antibody 4E5 (murine, hybridoma-derived) (antibody, V domains shown)
VH: QVQLQQSGAELVRPGTSVKVSCKASGYAFNNYLIEWIKQRPGQGLEWIGVINPGSGGTNHNEKFKVKATLTADKSSSTAYIQLSSLTSDDSAVYFCARSAGTARARFAYWGQGTLVTVSA
VL: DIQMTQSPSSLSASLGERVSLTCRASQDIGSSLNWLQQEPDGTIKRLIYATSSLDSGVPKRFSGSRSGSDYSLTISSLESEDFVDYYCLQYASFPFTFGSGTKLEIKR
notes: also called mAb4E5; ML37-4E5
not listed: [13]
no binding: all other assays above

B2: anti-human RAGE monoclonal antibody 7F9 (murine, hybridoma-derived) (antibody, V domains shown)
VH: EEKLEESGGGLVQLGGSMKISCVASGFTLSNYWMDWVRQSPEKGLEWIAEIRLKSNYYSTHYAESVKGRFSISRDDSKGSVSLQMDNLTAEDTGIYFCARNAYWYFDVWGTGTTVTVSS
VL: DIVMTQSHKFMSTSVGDRVSATCKASQDVGTSVAWYQQKLGQSPKLLIYWTSTRHTGVPDRFTGSGSGTDFTLTISNVQSEDLADYFCQQYNNYPLTFGDGTKLELKR
notes: also called mAb7F9; MAb 7F9
no binding: all assays above

B3: anti-human RAGE monoclonal antibody 11E6 (murine, hybridoma-derived) (antibody, V domains shown)
VH: QIQLVQSGPELKKPGETVKISCKASGYTFTNFGMNWVKQAPGKGLKWMGYINTNTGESIYSEEFKGRFAFSLETSASTAYLQINNLKNEDTATYFCARSRMVTAYGMDYWGQGTSVTVSS
VL: DIVMTQSQKFMSTSVGDRVSITCKASQNVGTAVAWYQQRPGQSPKLLIFSASNRYTGVPDRFTGSGSGTDFTLTLSNMQPEDLADYFCQQYSSYPLTFGVGTKLELKR
notes: also called mAb11E6; ML37-11E6
not listed: [13]
no binding: all other assays above
